Test: soluble on expression in E. coli; label from the status in PepcDB or PDB records

Row | Sequence | soluble on expression in E. coli
1 | MTTHIQKPATGSPLTLLNGVLQVPDQPIIPFIEGDGIGCDVTPAMRSVVDAAVAKVYGGQRQIAWMELFAGQKAVQLYGEGQYLPDETMAAIREYKVAIKGPLETPVGGGIRSLNVAMRQDLDLYVCLRPVRYFEGTPSPMRHPEKVDMVIFRENSEDIYAGIEWPAGSPEAEKIIRFLREEMGVTKIRFPDSSAIGIKPVSTEGSERLIRRTIQYALEHGKPSVSLVHKGNIMKFTEGGFRDWGYALAEREFAGRVFTWRQKAAISKAEGKAAGQKAEQQAIADGKLIIKDVIADNFLQQILLRPEDYSVVATLNLNGDYVSDALAAEVGGIGMAPGANLSDTHAIFEATHGTAPDIAGQGKANPSSLILSAVMMLEHLGWGEAAQAIVAAMNATIAAGEVTGDLAALRGDVPALSTTEFTAALIRRF | soluble
2 | MCFINLRSVADTINTQTRRITMFTYYQAENSTAEPALVNAIEQGLRAQHGVVTEDDILMELTKWVEASDNDILSDIYQQTINYVVSGQHPTLLEHHHHHH | not soluble
3 | MGSDKIHHHHHHMRKISVFDTTLRDGEQSAGVNLNFEEKMEIAKQLERLGVDIIEAGFPASSQGDFQSVKAIAETVKGSSVTGLARSVQKDIDAAWEALKSAEEPRIHLFIATSPIHMEHKLRMTPEQVIEKAVESVKYAASRFKHVQWSAEDASRSDFPFLAQIIEAVIQAGATVINLPDTVGYTTPQEIKRMFQYMKQNVPSIDKVSLSTHNHDDLGMAVANSLAAIQGGADQVECTINGIGERAGNASLEEIAVALNIRKDHYETETGLILKEIKRTSSLVSKLTGMVVPNNKAVVGANAFAHESGIHQDGVLKNKQTYEIITPEMVGVSSNSMVLGKHSGRHAFKTKVQELGFTGTDEQLNNIFKAFKDLADKKKEITEDDLFALMTEQTVGGETNHYELQTLQVNYGSNLTNTATITMKLPSGEVAEEAATGSGSVEAIYNTLERLLDAPVKLLDYRIQSITGGRDALADVYVQMDYQGVVSSGRGTAHDVLEASAKAYLNAVNRTINRKKYAEVYGSKVEV | not soluble
4 | MSLDSRPKLPQTLSRGWGDQLIWTQTYEEALYKSKTSNKPLMIIHHLDECPHSQALKKVFAENKEIQKLAEQFVLLNLVYETTDKHLSPDGQYVPRIMFVDPSLTVRADITGRYSNRLYAYEPADTALLLDNMKKALKLLKTELEGHHHHHH | soluble
5 | MTAAIAAPAYDAIVIGSGIGGLVTATQLAAKGAKVLVLERYLIPGGSAGWFEREGYRFDFGASIIFGFGDPGTTNLLTPPLADVGQALETIPDPVQIHYHLPNQLDLKVHRDYEAFLQELIAQFPQEAEGIRRFYDECWQVFNCLNAMPLLSLEEPKYLFNVFLQHPLACLGLVKYLPQNVGDIARRYIRNPDLLKFIDMECYCWSVVPATMTPMINAGMVFSDRHYGGINYPKGGVGRIAEKLVAGLEAKGSSIRYKARVTRILTEKGRAIGVELADGEKLYAKRIISNATRWNTFG | soluble
6 | MSEKLQKVLARAGHGSRRELEALIRAGRVSVNGKVAVLGERLEDDNAVVRIDGHVVSVKAQEEVICRVLAYYKPEGELCTRHDPEGRRTVFDRLPKIRGSRWISVGRLDANTSGLLLFTTDGELANRLMHPSRQVEREYLVRVFGDVTEEKVRNLVRGVQLEDGMARFEDVMYAGGEGINHTFYVVINEGRNREVRRLWESQGTTVSRLKRVRYGDIFLDKKLPRGGWMELDLKQVNYLRELVELRPEKETVLNMAPDAATRKRERTRSQKIRRAVRRHEERISATPGRSGKAPARRKPGGESSTRNKVANQQQSSRKPRG | not soluble
7 | NRMKLMIVGNTGSGKTTLLQQLMKTKKSDLGMQSATVGIDVKDWPIQIRDKRKRDLVLNVWDFAGREEFYSTHPHFMTQRALYLAVYDLSKGQAEVDAMKPWLFNIKARASSSPVILVGTHLDVSDEKQRKACMSKITKELLNKRGFPAIRDYHFVNATEESDALAKLRKTIINESLNFKIRDQ | soluble
8 | MKSSTMTSDYYKQTQIDQTLRLREVLKTLPPFAKDYFRAMEPKSSAKTRINYAYDIRVFFHFLLENNPIYKNYTMDQFRVQDLERIEPVDIEEYMEYLKVYKREDNEMITNGERGLKRKMSALRSFYSYYFKHQYIATNPTLLEHHHHHH | not soluble
9 | KYIDRAGKLAYDSHIAYHRIKGLSQTVLERVQEAVVVINAEGLAVLFNRKAKDLFPALEIGRRAGLSDSAAELWDQASPHTFEYVLGTPGLNAGIRAVPVNKGSDKLLILYIRPQSEIQAEALSVKLAALGQLTANLAHEIRNPMSAIRHANDLLRENMEAGAADPFNAKLCKIIDGNICRIDKMLEDISSLNKRNKTERETIGLIPFWEEFKQEFLLGHPDAADCIRPDIQGGSPTAYFDPAHLRQIMWNLANNAWRHSRKQPGSISVTIRPAQKNTVCILFADRPKCRNTCSNPFTPRRKTAPASGCMSPANWRTPISAI | not soluble
10 | ASKPVEPAKPAEPTKVEFEEKQGKRGVKLGTVAIILSIIFGGGLAYKLHEQQADYQAQIAQLQNQLEKAQASMKQELNQVKEETIEKATTVTHKAEVVLGQQQKSIESLQLAVADVKGRRPNDWLLAEADYLVKLAGRKLFLEHDVESATQLMESADQRIAALNDPSLVKLRKAMANDITKLRTVPLIDRDGLVLRLTALQQQVDKLPLANALLPEAQVVAQHEVSEDISNWQDNLMTSLKDFSENFITFRTRDGNVIPLLSPEQHFYLKENIKAKLETAIKAVYQEQGEIYTTSLTTADKWAMAFFNQDDNAVKEFNKALNQLSQQNIQVEYPAKLESQSQLSDVIRERLRREVTTMTGTGDK | not soluble
11 | LITMNYNSPTIGMHQNLTIILPEDVTFFDSSTTAKHLKSMLLLHGLSSDETTYIRYTSIERYANEHQLAIIMPNVDHSGYANMVYGHSYYDYILEIYEYVHQILPLSRKREDNFIAGHSMGGYGTIKFALTQSDKFAKAAPLSAVFEAQRFIDLDWTDFSPQSITGNNTQIKGTELDTYYLLDQAIDANVDIPELFIMCGKEDFLYHDNLQFIETLNKKGVSYKFEDGPGNHDYAYWDRAIKRAIEWFVQ | not soluble
12 | MNIRNARPEDLMNMQHCNLLCLPENYQMKYYFYHGLSWPQLSYIAEDENGKIVGYVLAKMEEDPDDVPHGHITSLAVKRSHRRLGLAQKLMDQASRAMIENFNAKYVSLHVRKSNRAALHLYSNTLNFQISEVEPKYYADGEDAYAMKRDLTQMADEPASGPGSSCLLSGDLGPVSFHPLPSGLLAAAEAAPGAEGKGQAHGSGGLGEQSGEQRQRAFELRRGLS | soluble
13 | MKCAICDSVALSLHFGAPSCKACAAFFRRTVALDITYDCITGTLDCEVNFERRMACKRCRYQKCIDNNMQRYLVQSKKGRPDASTANGIENPTTSASPSIPSPFSPPCPSSHNSAPSGLLSPMETDEIQKLNEHFFKMDSNLNKSRRMAFTDSRLLDIFSGVCKMPFEKHQLQPFDFRSYRGYQKQEYVMLFNYANTLPGFQELSNASQNFLFRIACGVDYVISSSYYTLCIGTESNLLINQDGTYIQMMPLPLMGDEPGTELMFTRKEELEKYRNIIKPRVNSWLEFIPLFKSLELSFEENAILKALCCWQTAHFKLEECDKENVRKQKSLLVQCLLKFCIDTYGEEEGPARAGNIILFSSSISVSLMGTSRNVVYGLKLPYISKS | not soluble
14 | MNILQNENLIIESSSFGAELTKIFSKKYDKNILWDGNKKYWGRQSPILFPIVGKLFDNETIIEENLYSMTQHGFARDMDFEIVDKGDTFVTYKLTDNESTLKKYPYSFELIINYTLNDNSIEVEWIVKNTDSKDIFFSIGGHPAFNLPFYKQNDFSKHYLEFKSKNDVEKINLNGSFTDDIIPIGKLKNLQLNPEVFKNDALIYTNIDEVSICNNDGSKYVTISMEDFPLVGIWTPYYSETNSTAPFLCIEPWYGLADSINSNKIYKDKKFINKLSKGKVFTASYNINIHLEHHHHHH | soluble
15 | VTVSTSTARSADDSDHSSEVARPTDSRRDPEVLREALQRWLAAQLPPDAAPEVTHVHLPDANGMSSETILFDATWSGEVHPLVARVAPADTTMPVFPEYDLDGQFQVMAQVREHSAVPVPVVYWSESDPGPLGAPFFVMARVSGQVPPDVMPYNFGSWVTEATEEQRALLQHSAVNVLAQLHDIDRPWERFAFLQLPGSGPTVTEALAAHIRQQRDYYEWTTLSGPRSPLIERGFAWMEDNLPDDPSPAVFCWGDARIGNMMFEDFRPVAVLDWEMATLGPRELDLGWMTYLHRFFEDIAASAGLDGMPDFLRLDDLAALYEELTGHTPRDLEYYTAYAALRQATIMLRIQERAIHFGQAVAPEDPDDMIMHRASLEAMLDGTYWEKIR | not soluble
16 | PDTSHYALLSNRIVNAVKQYRSQRALEASKDRLSLFIDQSPLGFVEYNQDFEIVRVNETLTEIFGYTETELLGETWETFVSSESYDDVDAVTSALSEASGGYHSVNENVRKDGERIVVEWHNRLVTDDS | not soluble
17 | MGSDKIHHHHHHMEPKYTSFDKSAKTCIRQQVITEDLSWAHYQNAGERLYYQNDTQHTLSMYLDGGYETHRTDIKADYGAPSKFCLMPQGCQSHWQLGQPQQFMHLYFSDEHLKKLAVRVFDKDPRQVRLPELTFVDNPRLEALFRHQVAGLNWQTSDNHLMMEQVTDTVLVTLLQSSGFNLSVGPIKGGLAPKVAKAIKEFIYCHSHRQIYLSELAEIAQLSEYHFCRMFKCQFAMTPQEYLLQVRIEKVKQSLSHSTQSLTDIALNNGFANQSHMGRYFKKLSGMSPGEYQKHHQGR | not soluble
18 | MGSDKIHHHHHHMASLTFLGAAQEVTGSCYLLETLDGVKVLLECGMRQGRREADNGNRAPFPFDPASIDAVVISHAHLDHSGLLPRLAAEGFKGPIFATEATCELLELMLLDSAHIQEKDAEWENRWRNRIGKPSIKPLYTQADTERALKLRRPISLGSTVAVARGVRVTFHNAGHILGSSIVEVQFHDQVQPRRLVFSGDLGNTCSPLMRAPSPLSRADVVMLESTYGDRDHRDSNDTLEELAAILDQAHRDGGNVLIPSFAVGRTQDLLYYLGRFYQEGRLPQQAVFLDSPMAARANGIYLRHSNEFDDRDREYIRGTGTTRLEEWLPVLRVTRSADESMAINRIKSGAVIIAGSGMCTGGRIVHHFKHNLWRPECHVVFPGFQARGTLGRNIVDGASAVRVFHQRIAVKAQIHTLGGFSAHAGQSQLLDWVGHFAHRPALYLIHGEREKMEALQSAIRERLDWDAEIPEPGERIEI | not soluble
19 | MTLLRVGGVPEPFNEIFMQAQEGALPSTKLQVEFLGVAGGSGAALEMLAKCELDVAVTLTESAVARTKAAASGLAVHSVYVASPLAWGVAVSSKKTDWTDLNSLDAAVLRGESIRAGFSRRGSGSHLLLSVFASDRGWISTGIQNDILKSFECGSFDGLIQAAVAGDIDMFLWETCFTKECAATRQGLIRLVGEYAPSWPAFVLVCRDDAHVRAAVSELKREIEPLQRKFCTGEGLDILQNKYGFSLESAKLWLSRLQFAEPDEALSAEQWRSVERALELTAGSRSSSR | soluble
20 | MGSDKIHHHHHHMNPDFSYEKKKIEFSSGYIFKGKHYRCSIIKYASLYKNCTKGTENVEIYHFSPRERSVGSILILHGLGTVNIPFLFWMGSHLASAGLQASVMILPGNYTRTASGSTSGKDFFSPDLRRLTAFWEQAVVDTMTTIDLLQQENIWWDNNCLFGYCLGGMVSTIVSAIDKRINDLILMTVGGNIAKIIWQSPVLKSIRLSLRSGSGEEGYLNDEKRLNARFKEDSLAVKKMKSASELLESDLHPLFKIDPLAYARFNDSEKVTMIEALFDKALPVQTRKQLWEAFGRPKRYIVPIGHVSWFPFEYALGKYILKKLGIKEARKKMRLLESTKPTE | not soluble
21 | MGSDKIHHHHHHMKKLVVRADDIGYSEGVTLGIISSYKNGIVTSAGIMVNMPFSRQAIEMVKNDDVCFGLHVNLVIGEPCCKEHIKIKNLLDEGGKFVSSKIRRTQLLTGKEVFNYEEVYEEVCAQIETYKLYMSKLPEYIDIHGIEEDVSISAMCDAAKEYGIPSCPYYLDSCISMPSKYPQNDFYKLNKSFVKLFEEKYINLDKDITLMVTHPGFIDYSLIKSSSLIQERVYEHAMLCDKEVKMWLKRNNIELVDFKDIFKSNNYI | not soluble
